Experimental findings from patent publication US20230051580A1 (HUDSON INSTITUTE OF MEDICAL RESEARCH, published 2023) are described below.

What all share (experiment): SPR (ProteOn XPR36), antibody immobilised, antigen applied
For assay [1], the target named is T1, recombinant full-length (mature) human CXCL10 (human, UniProt P02778 22-98).
T1 construct: Recombinant protein from Genscript, used for immunisation and as the assay standard; also called full-length CXCL10; IP-10
T1 sequence: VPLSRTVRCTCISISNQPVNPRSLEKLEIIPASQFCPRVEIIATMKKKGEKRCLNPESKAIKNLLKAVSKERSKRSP
How it is done: (§1) Two monoclonal antibodies; namely mAb-RA2 specific for full length, N-terminally intact CXCL10, and mAb-RG2 specific for both full length and truncated CXCL10, were analysed by Surface Plasmon Resonance (SPR) for binding affinity against both forms of CXCL10. Experiments were performed using a ProteOn XPR36 SPRi biosensor (BioRad), equipped with a GLC chip. The chip was conditioned with 0.5% SDS, 50 mM NaOH and 100 mM HCl, and then the lanes were activated using equal parts 1-Ethyl-3-(3-dimethylaminopropyl) carbodiimide (EDAC) and N-Hydroxysuccinimide (NETS). The antibodies were immobilised in separate lanes at a concentration of 50 μg/mL in sodium acetate buffer (pH4.5), then each lane deactivated using ethanolamine. Antigens were applied to each lane, and binding was recorded as RU. All channels were regenerated using 0.85% […] between applications of antigen. Interspot and control RU were subtracted to give specific binding.
(§2) The inventors developed a monoclonal antibody that could differentiate between the N-terminally intact, chemotactically active form of CXCL10 and all other variants. Using full-length CXCL10 protein as the antigen, hybridoma clones were isolated and screened for reactivity against (i) full-length CXCL10 protein; and (ii) short synthetic peptides, representing either the intact or truncated N-terminus of CXCL10. Antibodies secreted by clone mAb-RA2 recognized both full-length and N-terminally intact CXCL10, but not the N-terminally truncated form (Table 4). Antibodies secreted by clone mAb-RG2 reacted with all proteoforms of CXCL10 tested. […] The open reading frames encoding the variable regions of both antibodies was sequenced.

Assay [2] addresses T2, short peptide comprising the truncated N-terminus of human CXCL10 (NH2-LSRTVRCTCISISNQPVNPRSLE-COOH) (human).
T2 construct: Synthesised by Mimotopes; also called VP-truncated N-term; N-terminally truncated form
T2 peptide: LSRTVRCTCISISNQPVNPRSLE
The protocol:
as §1, §2

Assay [3] concerns the target T3, short peptide comprising the intact N-terminus of human CXCL10 (NH2-VPLSRTVRCTCISISNQPVNPRSLE-COOH) (human).
T3 construct: Synthesised by Mimotopes; also called N-terminally intact CXCL10 peptide
T3 peptide: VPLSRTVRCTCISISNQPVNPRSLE
The protocol: as §1, §2

B1: anti-CXCL10 monoclonal antibody mAb-RG2 (antibody, V domains shown)
VH: QIQLVQSGPDLKKPGETVKISCKASGYTFTNYGMNWVKQAPGKGLKWMAWINTNSGEPTYAEEFKGRFALSLDTSASTAYLQINNLKNEDTATYFCARYTGEFFYNGSSYVSYWYFDVWGAGATVTVSS
VL: DIVLTQSPASLAVSLGQRATISCRASKSVSSSGYSYMHWYQQKPGQPPKLLIYLASNLESGVPARFSGSGSGSDFTLNIHPVEEEDAATYYCQHSRDLPWTFGGGTKLEIKR
notes: It was immobilised on the chip in SPR, and used biotinylated as the detection antibody in the sandwich ELISA (ART); also called anti-CXCL10 antibody RG2
Consider B1, for which the results for the Kd in assay [1], in assay [2] and in assay [3] were 0.00389 nM, 3 nM and 3.54 nM, respectively.

B2: anti-CXCL10 monoclonal antibody mAb-RA2 (antibody, V domains shown)
VH: QVQLQQPGAELVRPGASVKLSCKASGYTFTSHWMIWVKQRPGQGLEWIGMIDPSDSATHYNQMFKDKATLTVDKSSSTAYMQLSSLTSEDSAVYYCANTRHDESWGQGTLVTVSA
VL: DIQMTQSPSSLSASLGGRVTITCKASQDIHKYIAWYQHKPGKGPRLLIYDTSTLQPGIPSRFTGSGSGRDYSFSISNLEPEDIATYYCLQYDDLYTFGGGTKLEIKR
notes: It was immobilised on the chip in SPR, and used biotinylated as the detection antibody in the sandwich ELISA (ART); also called anti-CXCL10 antibody RA2
For B2, the dissociation constant Kd (commonly the constant that tells how readily two partners part at equilibrium) in assay [1] was 0.49 nM; in assay [3], 0.736 nM. Further, the binding result in assay [2] was “no binding”.
